Values of other authors as cited in article PMC2483503.

Tests used:
Test in all cases: ITC
[1] = biological target: FAK proline-rich peptide (PXXP) (Homo sapiens) (UniProt Q05397)
[2] = biological target: FAK peptide (Homo sapiens) (UniProt Q05397)
[3] = biological target: FAK peptide FAK peptide (proline-rich and pY motifs) (Homo sapiens) (UniProt Q05397)
[4] = biological target: CD3 zeta ITAM N-terminal pY peptide ITAM N-terminal pY peptide (Homo sapiens) (UniProt P20963)
[5] = biological target: CD3 zeta ITAM bisphosphopeptide ITAM bisphosphopeptide (Homo sapiens) (UniProt P20963)
[6] = biological target: CD3 zeta ITAM C-terminal pY peptide ITAM C-terminal pY peptide (Homo sapiens) (UniProt P20963)

ZAP70 SH2 domains, sequence (P43403 1-259): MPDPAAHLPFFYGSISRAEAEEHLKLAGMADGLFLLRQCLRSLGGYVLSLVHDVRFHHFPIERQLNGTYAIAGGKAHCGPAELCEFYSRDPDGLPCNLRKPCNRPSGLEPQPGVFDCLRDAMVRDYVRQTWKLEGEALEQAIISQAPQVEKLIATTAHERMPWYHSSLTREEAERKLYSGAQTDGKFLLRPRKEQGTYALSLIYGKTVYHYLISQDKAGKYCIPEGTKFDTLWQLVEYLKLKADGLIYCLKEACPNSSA
Fyn SH3-SH2, sequence (P06241 82-246): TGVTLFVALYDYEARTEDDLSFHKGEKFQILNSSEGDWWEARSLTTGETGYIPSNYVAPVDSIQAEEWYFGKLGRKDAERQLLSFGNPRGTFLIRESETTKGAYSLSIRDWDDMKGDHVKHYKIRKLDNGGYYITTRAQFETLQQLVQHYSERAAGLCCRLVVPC
Fyn SH3, sequence (P06241 79-146): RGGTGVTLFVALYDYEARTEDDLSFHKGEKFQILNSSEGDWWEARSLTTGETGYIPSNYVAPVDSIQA
FAK peptide FAK peptide (proline-rich and pY motifs) (Homo sapiens), sequence (Q05397 368-403): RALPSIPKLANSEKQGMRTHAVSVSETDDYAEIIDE
FAK peptide (Homo sapiens), sequence (Q05397 2-1052): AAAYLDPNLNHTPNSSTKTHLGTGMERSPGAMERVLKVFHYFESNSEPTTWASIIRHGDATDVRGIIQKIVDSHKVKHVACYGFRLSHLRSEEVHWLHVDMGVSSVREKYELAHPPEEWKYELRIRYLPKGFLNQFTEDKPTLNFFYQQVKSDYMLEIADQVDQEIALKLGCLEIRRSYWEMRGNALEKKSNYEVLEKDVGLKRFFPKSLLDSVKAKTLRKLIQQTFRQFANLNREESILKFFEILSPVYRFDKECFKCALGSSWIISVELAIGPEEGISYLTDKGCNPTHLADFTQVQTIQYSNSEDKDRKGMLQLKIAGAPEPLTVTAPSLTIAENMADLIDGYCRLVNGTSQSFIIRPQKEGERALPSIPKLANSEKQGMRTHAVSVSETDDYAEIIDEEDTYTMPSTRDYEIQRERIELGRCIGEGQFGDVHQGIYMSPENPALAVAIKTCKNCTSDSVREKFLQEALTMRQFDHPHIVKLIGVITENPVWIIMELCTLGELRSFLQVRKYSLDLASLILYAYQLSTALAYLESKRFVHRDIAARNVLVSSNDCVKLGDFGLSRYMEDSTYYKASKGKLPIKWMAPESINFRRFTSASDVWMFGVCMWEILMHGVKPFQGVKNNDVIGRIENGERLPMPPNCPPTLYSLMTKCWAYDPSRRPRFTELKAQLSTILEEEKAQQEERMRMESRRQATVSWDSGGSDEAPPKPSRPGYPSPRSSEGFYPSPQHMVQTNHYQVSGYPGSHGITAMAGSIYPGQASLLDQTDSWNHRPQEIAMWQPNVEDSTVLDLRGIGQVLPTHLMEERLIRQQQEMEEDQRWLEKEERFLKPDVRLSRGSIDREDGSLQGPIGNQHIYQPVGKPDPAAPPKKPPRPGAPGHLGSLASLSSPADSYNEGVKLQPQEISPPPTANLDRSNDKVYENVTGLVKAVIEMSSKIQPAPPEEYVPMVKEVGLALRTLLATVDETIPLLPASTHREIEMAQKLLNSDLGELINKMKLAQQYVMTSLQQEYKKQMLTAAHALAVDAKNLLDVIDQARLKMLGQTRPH

Fyn SH3 (from UniProt P06241)
Kd [1]: 62 µM

Fyn SH3-SH2 (from UniProt P06241)
Kd [2]: 0.19 µM | Kd [3]: 0.19 µM

ZAP70 SH2 domains (from UniProt P43403)
Kd [4]: 142 µM | Kd [5]: 0.032 µM | Kd [6]: 333 µM
